According to article PMC3620054, “Lsb1 Is a Negative Regulator of Las17 Dependent Actin Polymerization Involved in Endocytosis” (PLoS ONE, 2013):
One block for each binder: values may come before it.

Target: T1, Las17 (purified recombinant) (S. cerevisiae, UniProt Q12446 1-633)
T1 construct: Las17, the WASP homolog of S. cerevisiae; also called WASP homolog; source: recombinant, purified, produced as reported [25], [45], [46]
Assay: SPR; Las17 coupled via an amino group to a CM5 chip, Biacore3000, 25°C, HBS-EP buffer, Lsb1, Lsb2 or their SH3 domains at 25 nM to 10 µM
Settings: both partners purified

T1 sequence (Q12446 whole entry): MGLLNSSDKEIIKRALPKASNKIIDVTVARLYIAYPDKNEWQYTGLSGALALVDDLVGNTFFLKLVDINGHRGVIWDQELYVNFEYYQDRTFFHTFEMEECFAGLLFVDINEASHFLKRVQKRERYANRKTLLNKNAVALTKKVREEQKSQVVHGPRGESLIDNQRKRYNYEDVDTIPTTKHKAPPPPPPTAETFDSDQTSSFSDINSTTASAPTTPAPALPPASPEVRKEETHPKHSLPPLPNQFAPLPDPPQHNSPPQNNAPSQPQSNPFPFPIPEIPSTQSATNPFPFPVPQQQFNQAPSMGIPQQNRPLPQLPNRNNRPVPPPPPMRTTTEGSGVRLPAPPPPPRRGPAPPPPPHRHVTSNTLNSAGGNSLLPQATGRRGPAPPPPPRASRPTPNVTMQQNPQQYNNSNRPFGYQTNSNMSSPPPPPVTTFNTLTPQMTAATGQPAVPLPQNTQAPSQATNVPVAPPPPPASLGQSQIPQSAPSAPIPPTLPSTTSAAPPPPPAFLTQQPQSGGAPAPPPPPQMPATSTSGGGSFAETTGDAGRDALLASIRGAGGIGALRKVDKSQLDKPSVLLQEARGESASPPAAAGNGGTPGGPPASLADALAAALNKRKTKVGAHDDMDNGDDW

B1: SH3-Lsb2 (purified, GST cleaved off) (domain or fragment, S. cerevisiae, UniProt Q06449 59-110, looked up)
chain: VEALYQFDPQQDGDLGLKPGDKVQLLEKLSPEWYKGSCNGRTGIFPANYVKP
notes: Lsb2 (Pin3), S. cerevisiae, SH3 domain, residues 59-110, from pGEX4T-1; also called SH3 domain of Lsb2; source: E. coli BL21, purified (glutathione Sepharose, thrombin cleavage, size exclusion chromatography)
Kd: 730 nM

B2: SH3-Lsb1 (purified, GST cleaved off) (domain or fragment, S. cerevisiae, UniProt P53281 57-109, looked up)
chain: YVEALYDFEAQQDGDLSLKTGDKIQVLEKISPDWYRGKSNNKIGIFPANYVKP
notes: Lsb1, S. cerevisiae, SH3 domain, residues 57-109, from pGEX4T-1; also called SH3 domain of Lsb1; source: E. coli BL21, purified (glutathione Sepharose, thrombin cleavage, size exclusion chromatography)
Kd: 792 nM

Stronger by Kd, values ahead:

Kd: 79 nM
B3: Lsb2 (purified, GST cleaved off) (natural protein, S. cerevisiae, UniProt Q06449 1-215, looked up)
chain: MSASLINRSLTNIRTELDFLKGSNVISNDVYDQINKSLPAKWDPANAPRNASPASLEYVEALYQFDPQQDGDLGLKPGDKVQLLEKLSPEWYKGSCNGRTGIFPANYVKPAFSGSNGPSNLPPPPQYKAQELQQIPTQNSAASSYQQQPFPPPSTNYYQQPQQQPQQAPPPQQQQQQQQHQSSHSHLKSFGSKLGNAAIFGAGASIGSDIVNNIF
notes: Lsb2 (Pin3), S. cerevisiae, full-length, from pGEX4T-1; also called full-length Lsb2; Pin3; source: E. coli BL21, purified (glutathione Sepharose, thrombin cleavage, size exclusion chromatography)

Kd: 30 nM
B4: Lsb1 (purified, GST cleaved off) (natural protein, S. cerevisiae, UniProt P53281 1-241, looked up)
chain: MSASLVNRSLKNIRNELEFLKESNVISGDIFELINSKLPEKWDGNQRSPQNADTEEYVEALYDFEAQQDGDLSLKTGDKIQVLEKISPDWYRGKSNNKIGIFPANYVKPAFTRSASPKSAEAASSSTVSRPSVPPPSYEPAASQYPSQQVSAPYAPPAGYMQAPPPQQQQAPLPYPPPFTNYYQQPQQQYAPPSQQAPVEAQPQQSSGASSAFKSFGSKLGNAAIFGAGSAIGSDIVNSIF
notes: Lsb1, S. cerevisiae, full-length, from pGEX4T-1; also called full-length Lsb1; source: E. coli BL21, purified (glutathione Sepharose, thrombin cleavage, size exclusion chromatography)
